Four sequences from the supplement of paper PMC5998384 can be followed below.

Data set [1] has as its system HeLa Kyoto. As to the kind of experiment: melting temperature (median over replicates), in situ; higher = more thermally stable.
The test system of data set [2] is HeLa Kyoto. Kind of data set: solubility change mitosis vs G1/S (difference of NP-40 vs SDS log2 ratios) (log2 ratio difference); higher = more soluble in mitosis.
Data set [3] relates to HeLa Kyoto. As to the kind of experiment: solubility in G1/S (NP-40 vs SDS abundance) (log2 ratio); higher = more soluble. Conditions: cell cycle stage: G1/S.
Data set [4] has as its system HeLa Kyoto. As to the kind of experiment: thermal stability score vs G1/S (z-score of summed log2 fold changes over temperatures); higher = more thermally stable than in G1/S.
Where [5] appears, read: cell cycle stage: early G1 (4.5 h after nocodazole release).
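Wherever melting temperature (median over replicates), in situ is given: HeLa Kyoto cells synchronized by double thymidine or nocodazole block, proteins quantified by TMT10plex mass spectrometry, three independent biological replicates.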
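Wherever solubility change mitosis vs G1/S (difference of NP-40 vs SDS log2 ratios) is given: synchronized HeLa Kyoto cells (double thymidine block for G1/S, nocodazole release for mitosis), protein amounts in NP-40 versus SDS lysates quantified by mass spectrometry, three biological replicates.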
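Wherever solubility in G1/S (NP-40 vs SDS abundance) is given: HeLa Kyoto cells arrested at G1/S by double thymidine block, proteins quantified by TMT10plex mass spectrometry in mild NP-40 versus SDS extracts, three biological replicates.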
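Wherever thermal stability score vs G1/S (z-score of summed log2 fold changes over temperatures) is given: synchronized HeLa Kyoto cells, proteins quantified by TMT10plex mass spectrometry, three biological replicates, mitosis taken 0.5 h after nocodazole release, G1/S directly after double thymidine block.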

On to “MPLTGVEPARMNRKKGDKGFESPRPYKLTHQVVCINNINFQRKSVVGFVELTIFPTVANLNRIKLNSKQCRIYRVRINDLEAAFIYNDPTLEVCHSESKQRNLNYFSNAYAAAVSAVDPDAGNGELCIKVPSELWKHVDELKVLKIHINFSLDQPKGGLHFVVPSVEGSMAERGAHVFSCGYQNSTRFWFPCVDSYSELCTWKLEFTVDAAMVAVSNGDLVETVYTHDMRKKTFHYMLTIPTAASNISLAIGPFEILVDPYMHEVTHFCLPQLLPLLKHTTSYLHEVFEFYEEILTCRYPYSCFKTVFIDEAYVEVAAYASMSIFSTNLLHSAMIIDETPLTRRCLAQSLAQQFFGCFISRMSWSDEWVLKGISGYIYGLWMKKTFGVNEYRHWIKEELDKIVAYELKTGGVLLHPIFGGGKEKDNPASHLHFSIKHPHTLSWEYYSMFQCKAHLVMRLIENRISMEFMLQVFNKLLSLASTASSQKFQSHMWSQMLVSTSGFLKSISNVSGKDIQPLIKQWVDQSGVVKFYGSFAFNRKRNVLELEIKQDYTSPGTQKYVGPLKVTVQELDGSFNHTLQIEENSLKHDIPCHSKSRRNKKKKIPLMNGEEVDMDLSAMDADSPLLWIRIDPDMSVLRKVEFEQADFMWQYQLRYERDVVAQQESILALEKFPTPASRLALTDILEQEQCFYRVRMSACFCLAKIANSMVSTWTGPPAMKSLFTRMFCCKSCPNIVKTNNFMSFQSYFLQKTMPVAMALLRDVHNLCPKEVLTFILDLIKYNDNRKNKFSDNYYRAEMIDALANSVTPAVSVNNEVRTLDNLNPDVRLILEEITRFLNMEKLLPSYRHTITVSCLRAIRVLQKNGHVPSDPALFKSYAEYGHFVDIRIAALEAVVDYTKVDRSYEELQWLLNMIQNDPVPYVRHKILNMLTKNPPFTKNMESPLCNEALVDQLWKLMNSGTSHDWRLRCGAVDLYFTLFGLSRPSCLPLPELGLVLNLKEKKAVLNPTIIPESVAGNQEAANNPSSHPQLVGFQNPFSSSQDEEEIDMDTVHDSQAFISHHLNMLERPSTPGLSKYRPASSRSALIPQHSAGCDSTPTTKPQWSLELARKGTGKEQAPLEMSMHPAASAPLSVFTKESTASKHSDHHHHHHHEHKKKKKKHKHKHKHKHKHDSKEKDKEPFTFSSPASGRSIRSPSLSD [TAF2]”, for which the values for the melting temperature in the data set with HeLa Kyoto [1] (cell cycle stage: G1/S) and in the data set with HeLa Kyoto [1] (cell cycle stage: mitosis) were 49.6 °C and 50.2 °C, respectively. Further, in the data set on HeLa Kyoto [2], the “solubility change mitosis (log2)” value stood at 0.123. Moreover, the “solubility in G1/S (log2)” value in the data set with HeLa Kyoto [3] was -0.657. The thermal stability score with HeLa Kyoto [4] (setting [5]) came out at 0.286; with HeLa Kyoto [4] (cell cycle stage: mitosis), 0.175.

“MPLVKRNIDPRHLCHTALPRGIKNELECVTNISLANIIRQLSSLSKYAEDIFGELFNEAHSFSFRVNSLQERVDRLSVSVTQLDPKEEELSLQDITMRKAFRSSTIQDQQLFDRKTLPIPLQETYDVCEQPPPLNILTPYRDDGKEGLKFYTNPSYFFDLWKEKMLQDTEDKRKEKRKQKQKNLDRPHEPEKVPRAPHDRRREWQKLAQGPELAEDDANLLHKHIEVANGPASHFETRPQTYVDHMDGSYSLSALPFSQMSELLTRAEERVLVRPHEPPPPPPMHGAGDAKPIPTCISSATGLIENRPQSPATGRTPVFVSPTPPPPPPPLPSALSTSSLRASMTSTPPPPVPPPPPPPATALQAPAVPPPPAPLQIAPGVLHPAPPPIAPPLVQPSPPVARAAPVCETVPVHPLPQGEVQGLPPPPPPPPLPPPGIRPSSPVTVTALAHPPSGLHPTPSTAPGPHVPLMPPSPPSQVIPASEPKRHPSTLPVISDARSVLLEAIRKGIQLRKVEEQREQEAKHERIENDVATILSRRIAVEYSDSEDDSEFDEVDWLE [WASF1]”: the results for the melting temperature in the data set with HeLa Kyoto [1] (cell cycle stage: G1/S) and in the data set with HeLa Kyoto [1] (cell cycle stage: mitosis) were 51.5 °C and 52 °C, respectively. For the same sequence, in the data set on HeLa Kyoto [2], the “solubility change mitosis (log2)” value is 0.025. Besides, the “solubility in G1/S (log2)” value with HeLa Kyoto [3] was determined as 0.124. Further, the thermal stability score was -0.0852 in the data set with HeLa Kyoto [4] (setting [5]) and 0.459 in the data set with HeLa Kyoto [4] (cell cycle stage: mitosis).

As to “MPMWAGGVGSPRRGMAPASTDDLFARKLRQPARPPLTPHTFEPRPVRGPLLRSGSDAGEARPPTPASPRARAHSHEEASRPAATSTRLFTDPLALLGLPAEEPEPAFPPVLEPRWFAHYDVQSLLFDWAPRSQGMGSHSEASSGTLASAEDQAASSDLLHGAPGFVCELGGEGELGLGGPASPPVPPALPNAAVSILEEPQNRTSAYSLEHADLGAGYYRKYFYGKEHQNFFGMDESLGPVAVSLRREEKEGSGGGTLHSYRVIVRTTQLRTLRGTISEDALPPGPPRGLSPRKLLEHVAPQLSPSCLRLGSASPKVPRTLLTLDEQVLSFQRKVGILYCRAGQGSEEEMYNNQEAGPAFMQFLTLLGDVVRLKGFESYRAQLDTKTDSTGTHSLYTTYQDHEIMFHVSTMLPYTPNNQQQLLRKRHIGNDIVTIVFQEPGSKPFCPTTIRSHFQHVFLVVRAHTPCTPHTTYRVAVSRTQDTPAFGPALPAGGGPFAANADFRAFLLAKALNGEQAAGHARQFHAMATRTRQQYLQDLATNEVTTTSLDSASRFGLPSLGGRRRAAPRGPGAELQAAGSLVWGVRAAPGARVAAGAQASGPEGIEVPCLLGISAEALVLVAPRDGRVVFNCACRDVLAWTFSEQQLDLYHGRGEAITLRFDGSPGQAVGEVVARLQLVSRGCETRELALPRDGQGRLGFEVDAEGFVTHVERFTFAETAGLRPGARLLRVCGQTLPSLRPEAAAQLLRSAPKVCVTVLPPDESGRPRRSFSELYTLSLQEPSRRGAPDPVQDEVQGVTLLPTTKQLLHLCLQDGGSPPGPGDLAEERTEFLHSQNSLSPRSSLSDEAPVLPNTTPDLLLATTAKPSVPSADSETPLTQDRPGSPSGSEDKGNPAPELRASFLPRTLSLRNSISRIMSEAGSGTLEDEWQAISEIASTCNTILESLSREGQPIPESGDPKGTPKSDAEPEPGNLSEKVSHLESMLRKLQEDLQKEKADRAALEEEVRSLRHNNRRLQAESESAATRLLLASKQLGSPTADLA [SIPA1]”, the melting temperature worked out at 50.8 °C with HeLa Kyoto [1] (cell cycle stage: G1/S) and 51.4 °C in the data set on HeLa Kyoto [1] (cell cycle stage: mitosis). For the same sequence, the “solubility change mitosis (log2)” value in the data set with HeLa Kyoto [2] turned out to be 0.0512. Besides, the “solubility in G1/S (log2)” value in the data set with HeLa Kyoto [3] is -0.217. Besides, the thermal stability score in the data set with HeLa Kyoto [4] (setting [5]) amounted to 1.19; with HeLa Kyoto [4] (cell cycle stage: mitosis), 0.467.

As for “MPNIKIFSGSSHQDLSQKIADRLGLELGKVVTKKFSNQETCVEIGESVRGEDVYIVQSGCGEINDNLMELLIMINACKIASASRVTAVIPCFPYARQDKKDKSRAPISAKLVANMLSVAGADHIITMDLHASQIQGFFDIPVDNLYAEPAVLKWIRENISEWRNCTIVSPDAGGAKRVTSIADRLNVDFALIHKERKKANEVDRMVLVGDVKDRVAILVDDMADTCGTICHAADKLLSAGATRVYAILTHGIFSGPAISRINNACFEAVVVTNTIPQEDKMKHCSKIQVIDISMILAEAIRRTHNGESVSYLFSHVPL [PRPS1]”, the melting temperature in the data set on HeLa Kyoto [1] (cell cycle stage: G1/S) amounted to 57.3 °C; in the data set on HeLa Kyoto [1] (cell cycle stage: mitosis), 57.4 °C. Further, the “solubility change mitosis (log2)” value in the data set on HeLa Kyoto [2] was -0.136. In the data set with HeLa Kyoto [3], the “solubility in G1/S (log2)” value is -0.185. The thermal stability score in the data set with HeLa Kyoto [4] (setting [5]) turned out to be 1.55; in the data set with HeLa Kyoto [4] (cell cycle stage: mitosis), 0.473.
